For two proteins, Km, kcat and kcat/Km results are on record in paper PMC6017454, “A Xylenol Orange-Based Screening Assay for the Substrate Specificity of Flavin-Dependent para-Phenol Oxidases” (Molecules : A Journal of Synthetic Chemistry and Natural …, 2018).

Substrate in data set [1]: COc1cc(CO)ccc1O
In words: purified protein. It is filed as biochemical, Penicillium simplicissimum. The conditions noted are these: 50 mM potassium phosphate, pH 7.5, 25 °C, O2 as electron acceptor.

Substrate in data set [2]: COc1cc(CO)ccc1O
In words: purified protein. The class given is biochemical, Rhodococcus jostii. The conditions noted are these: 50 mM potassium phosphate, pH 7.5, 25 °C, O2 as electron acceptor.

B1: His-VAO (vanillyl alcohol oxidase) (Penicillium simplicissimum) (protein)
chain: MSKTQEFRPLTLPPKLSLSDFNEFIQDIIRIVGSENVEVISSKDQIVDGSYMKPTHTHDPHHVMDQDYFLASAIVAPRNVADVQSIVGLANKFSFPLWPISIGRNSGYGGAAPRVSGSVVLDMGKNMNRVLEVNVEGAYCVVEPGVTYHDLHNYLEANNLRDKLWLDVPDLGGGSVLGNAVERGVGYTPYGDHWMMHSGMEVVLANGELLRTGMGALPDPKRPETMGLKPEDQPWSKIAHLFPYGFGPYIDGLFSQSNMGIVTKIGIWLMPNPRGYQSYLITLPKDGDLKQAVDIIRPLRLGMALQNVPTIRHILLDAAVLGDKRSYSSRTEPLSDEELDKIAKQLNLGRWNFYGALYGPEPIRRVLWETIKDAFSAIPGVKFYFPEDTPENSVLRVRDKTMQGIPTYDELKWIDWLPNGAHLFFSPIAKVSGEDAMMQYAVTKKRCQEAGLDFIGTFTVGMREMHHIVCIVFNKKDLIQKRKVQWLMRTLIDDCAANGWGEYRTHLAFMDQIMETYNWNNSSFLRFNEVLKNAVDPNGIIAPGKSGVWPSQYSHVTWKL
notes: N-terminal 6xHis tag plus single Gly, tag kept; codon-optimised, E. coli BL21; covalent FAD; VAO predominantly octameric
For B1, in the data set “purified protein [1]”, the Km came to 129 ± 15 µM, the kcat was determined as 2.5 ± 0.1 s⁻¹ and the kcat/Km was determined as 19000 M⁻¹ s⁻¹.

B2: EUGO-His (eugenol oxidase) (Rhodococcus jostii RHA1) (protein)
chain: MTRTLPPGVSDERFDAALQRFRDVVGDKWVLSTADELEAFRDPYPVGAAEANLPSAVVSPESTEQVQDIVRIANEYGIPLSPVSTGKNNGYGGAAPRLSGSVIVKTGERMNRILEVNEKYGYALLEPGVTYFDLYEYLQSHDSGLMLDCPDLGWGSVVGNTLDRGVGYTPYGDHFMWQTGLEVVLPQGEVMRTGMGALPGSDAWQLFPYGFGPFPDGMFTQSNLGIVTKMGIALMQRPPASQSFLITFDKEEDLEQIVDIMLPLRINMAPLQNVPVLRNIFMDAAAVSKRTEWFDGDGPMPAEAIERMKKDLDLGFWNFYGTLYGPPPLIEMYYGMIKEAFGKIPGARFFTHEERDDRGGHVLQDRHKINNGIPSLDELQLLDWVPNGGHIGFSPVSAPDGREAMKQFEMVRNRANEYNKDYAAQFIIGLREMHHVCLFIYDTAIPEAREEILQMTKVLVREAAEAGYGEYRTHNALMDDVMATFNWGDGALLKFHEKIKDALDPNGIIAPGKSGIWSQRFRGQNL
notes: E. coli TOP10; covalent FAD; EUGO dimeric
B2: in “purified protein [2]”, the Km turned out to be 47 ± 5 µM, the kcat turned out to be 8 ± 0.2 s⁻¹ and the kcat/Km amounted to 170000 M⁻¹ s⁻¹.
